Results published in publication PMC10470768.

Key:
[1] = test system: Tde1tox H279A/D282A (catalytically inactive Ntox15 domain) (Phocaeicola vulgatus); experiment: BLI; conditions: BLI (Octet Red96), biotinylated oligo on streptavidin sensors, Octet kinetics buffer (Sartorius), association 300 s, dissociation 600 s, one-site equilibrium …
[2] = molecular target: Tdi orphan A (TdioA), orphan immunity protein; experiment: BLI; Octet Red96; hexahistidine immunity proteins (5 mg/mL) immobilised on NTA biosensors; varying concentrations of Tde1^tox H279A/D282A in Octet kinetics buffer; association 300 s, dissociation 600 s; one site fit of equilibrium binding data
[3] = molecular target: Tdi orphan B (TdioB), orphan immunity protein; experiment: as above
[4] = molecular target: Tdi1 (cognate immunity protein of Tde1) (Phocaeicola vulgatus); experiment: as above

Substance | Kd [1] [nM] | Kd [2] [nM] | Kd [3] [nM] | Kd [4] [nM]
30-nt random-sequence biotinylated ssDNA | 500 |  |  | 
Tde1^tox H279A/D282A (catalytically inactive Ntox15 domain of the Hcp-Ntox15 effector Tde1) (domain or fragment) |  | 24 | 19 | 18
30-bp random-sequence biotinylated dsDNA | 500 |  |  | 
